Values of other authors, collected in patent US20060024387A1, “Methods and compositions for increasing milk production in animals” (priority 2004, published 2006).

Settings: injection

B1: BST: Hormone injected to increase milk production in lactating cows (protein, UniProt P01246 27-217, looked up)
Somatotropin: AFPAMSLSGLFANAVLRAQHLHQLAADTFKEFERTYIPEGQRYSIQNTQVAFCFSETIPAPTGKNEAQQKSDLELLRISLLLIQSWLGPLQFLSRVFTNSLVFGTSDRVYEKLKDLEEGILALMRELEDGTPRAGQILKQTYDKFDTNMRSDDALLKNYGLLSCFRKDLHKTETYLRVMKCRRFGEASCAF
  effect on milk production: increase milk production
